In US8309523 (VIB VZW, dated 2012):
Residue numbers refer to the chain shown, from its start.

Key:
MALT1-R149A (bio-tagged) [1] = target: T1, MALT1-R149A (bio-tagged) (human, UniProt Q9UDY8 1-824, Avi-tag biotinylated in vivo by co-expressed BirA); assay: co-IP (bio-IP, immunoblot)
T1 construct: also called R149A mutant
T1 sequence (looked up): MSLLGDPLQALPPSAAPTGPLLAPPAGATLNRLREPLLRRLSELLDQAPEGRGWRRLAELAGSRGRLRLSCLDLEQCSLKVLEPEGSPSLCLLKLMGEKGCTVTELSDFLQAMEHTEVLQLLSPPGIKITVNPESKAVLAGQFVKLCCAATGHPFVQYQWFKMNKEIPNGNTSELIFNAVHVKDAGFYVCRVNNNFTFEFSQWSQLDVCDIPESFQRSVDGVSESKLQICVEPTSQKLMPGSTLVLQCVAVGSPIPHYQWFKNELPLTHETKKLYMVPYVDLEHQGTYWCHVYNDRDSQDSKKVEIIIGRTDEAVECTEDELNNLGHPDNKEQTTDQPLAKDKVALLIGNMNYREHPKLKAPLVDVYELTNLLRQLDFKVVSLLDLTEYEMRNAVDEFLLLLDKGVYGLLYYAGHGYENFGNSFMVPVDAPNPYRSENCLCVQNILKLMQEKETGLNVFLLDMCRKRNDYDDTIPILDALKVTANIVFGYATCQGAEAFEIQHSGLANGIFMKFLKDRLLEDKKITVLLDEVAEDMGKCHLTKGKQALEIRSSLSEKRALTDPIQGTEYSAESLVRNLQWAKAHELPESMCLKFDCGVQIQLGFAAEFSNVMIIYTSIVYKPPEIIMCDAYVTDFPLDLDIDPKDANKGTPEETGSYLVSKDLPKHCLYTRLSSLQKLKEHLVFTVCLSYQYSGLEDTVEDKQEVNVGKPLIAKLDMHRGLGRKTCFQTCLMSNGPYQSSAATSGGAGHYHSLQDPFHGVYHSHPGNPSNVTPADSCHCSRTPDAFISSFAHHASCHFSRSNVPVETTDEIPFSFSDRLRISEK

MALT1-C464A (bio-tagged) [2] = target: T2, MALT1-C464A (bio-tagged) (human, UniProt Q9UDY8 1-824); assay: co-IP (bio-IP, immunoblot)
T2 construct: also called C464A mutant; C464 mutant
T2 sequence (looked up): T1 sequence (looked up) with A149R, C464A

[3] = target: T3, MALT1 (wild type, Flag- and Avi-tagged bio-construct) (human, UniProt Q9UDY8 1-824, Avi-tag biotinylated in vivo by co-expressed BirA); assay: immunoblots of bio-IPs from Jurkat cells with stable expression
T3 construct: also called paracaspase; bio-IP purified MALT1
T3 sequence (looked up): T1 sequence (looked up) with A149R

MALT1-R149A (bio-tagged) [4] = target: T1, MALT1-R149A (bio-tagged); assay: as above
MALT1-C464A (bio-tagged) [5] = target: T2, MALT1-C464A (bio-tagged); assay: as above

B1: BCL10 (other, UniProt O95999 1-233, looked up)
chain: MEPTAPSLTEEDLTEVKKDALENLRVYLCEKIIAERHFDHLRAKKILSREDTEEISCRTSSRKRAGKLLDYLQENPKGLDTLVESIRREKTQNFLIQKITDEVLKLRNIKLEHLKGLKCSSCEPFPDGATNNLSRSNSDESNFSEKLRASTVMYHPEGESSTTPFFSTNSSLNLPVLEVGRTENTIFSSTTLPRPGDPGAPPLPPDLQLEEEGTCANSSEMFLPLRSRTVSRQ
notes: Co-precipitated from lysates of human cell lines
B1: binds (MALT1-R149A (bio-tagged) [1]); binds (MALT1-C464A (bio-tagged) [2]); binds [3].

B2: TRAF6 (other, UniProt Q9Y4K3 1-522, looked up)
chain: MSLLNCENSCGSSQSESDCCVAMASSCSAVTKDDSVGGTASTGNLSSSFMEEIQGYDVEFDPPLESKYECPICLMALREAVQTPCGHRFCKACIIKSIRDAGHKCPVDNEILLENQLFPDNFAKREILSLMVKCPNEGCLHKMELRHLEDHQAHCEFALMDCPQCQRPFQKFHINIHILKDCPRRQVSCDNCAASMAFEDKEIHDQNCPLANVICEYCNTILIREQMPNHYDLDCPTAPIPCTFSTFGCHEKMQRNHLARHLQENTQSHMRMLAQAVHSLSVIPDSGYISEVRNFQETIHQLEGRLVRQDHQIRELTAKMETQSMYVSELKRTIRTLEDKVAEIEAQQCNGIYIWKIGNFGMHLKCQEEEKPVVIHSPGFYTGKPGYKLCMRLHLQLPTAQRCANYISLFVHTMQGEYDSHLPWPFQGTIRLTILDQSEAPVRQNHEEIMDAKPELLAFQRPTIPRNPKGFGYVTFMHLEALRQRTFIKDDTLLVRCEVSTRFDMGSLRREGFQPRSTDAGV
notes: as for B1
B2: binds (MALT1-R149A (bio-tagged) [4]); binds (MALT1-C464A (bio-tagged) [5]).
